One block for each binder: values may come before it.
Experiments:
Experiment in all cases: SPR
IL17A = IL17A (Homo sapiens (assumed), UniProt Q16552)
CD40 = CD40 (Homo sapiens (assumed), UniProt P25942)
IL36R = IL36R (Homo sapiens (assumed), UniProt Q9HB29)
Chain of IL36R (Q9HB29 20-335): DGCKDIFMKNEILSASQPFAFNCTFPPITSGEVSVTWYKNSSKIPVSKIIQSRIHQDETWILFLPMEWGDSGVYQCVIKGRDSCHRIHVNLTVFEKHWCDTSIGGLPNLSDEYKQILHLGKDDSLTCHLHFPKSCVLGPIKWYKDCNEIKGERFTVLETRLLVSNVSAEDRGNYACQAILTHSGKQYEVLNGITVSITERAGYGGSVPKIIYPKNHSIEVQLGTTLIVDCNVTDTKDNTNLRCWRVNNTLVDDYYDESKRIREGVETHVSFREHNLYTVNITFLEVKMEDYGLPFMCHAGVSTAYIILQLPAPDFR

Chain of IL17A (Q16552 24-155): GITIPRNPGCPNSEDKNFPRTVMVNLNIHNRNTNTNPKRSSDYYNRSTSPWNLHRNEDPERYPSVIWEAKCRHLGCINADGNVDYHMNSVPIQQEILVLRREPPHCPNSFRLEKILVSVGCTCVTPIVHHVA
Chain of CD40 (P25942 21-193): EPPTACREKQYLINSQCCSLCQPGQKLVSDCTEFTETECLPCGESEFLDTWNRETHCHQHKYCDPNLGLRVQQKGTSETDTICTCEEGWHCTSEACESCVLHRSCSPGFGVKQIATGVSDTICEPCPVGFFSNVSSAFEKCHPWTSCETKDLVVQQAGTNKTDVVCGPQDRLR

binding result (IL17A): binds
B1: Afasevikumab (Fab, V domains shown)
VH: EVQLVESGGGLVQPGRSLRLSCAASGFTFDDYAMHWVRQAPGKGLEWVSGINWSSGGIGYADSVKGRFTISRDNAKNSLYLQMNSLRAEDTALYYCARDIGGFGEFYWNFGLWGRGTLVTVSS
VL: not shown

binding result (CD40): binds
B2: Ravagalimab (Fab, V domains shown)
VH: EVQLVESGGGLVKPGGSLRLSCAASGFTFSDYGMNWVRQAPGKGLEWIAYISSGRGNIYYADTVKGRFTISRDNAKNSLYLQMNSLRAEDTAVYYCARSWGYFDVWGQGTTVTVSS
VL: DIVMTQSPDSLAVSLGERATINCKSSQSLLNRGNQKNYLTWFQQKPGQPPKLLIYWASTRESGVPDRFSGSGSGTDFTLTISSLQAEDVAVYYCQNDYTYPLTFGQGTKLEIK

binding result (IL36R): binds
B3: Spesolimab (Fab, V domains shown)
VH: QVQLVQSGAEVKKPGASVKVSCKASGYSFTSSWIHWVKQAPGQGLEWMGEINPGNVRTNYNENFRNKVTMTVDTSISTAYMELSRLRSDDTAVYYCTVVFYGEPYFPYWGQGTLVTVSS
VL: QIVLTQSPGTLSLSPGERATMTCTASSSVSSSYFHWYQQKPGQAPRLWIYRTSRLASGVPDRFSGSGSGTDFTLTISRLEPEDAATYYCHQFHRSPLTFGAGTKLEIK
